B1: KB_C09: KnotBody, EETI-II in VL CDR2; VL SEQ ID NO: 120 (antibody, V domains shown)
VL: QSVLTQPPSVSEAPRQRVTITCSGSSSNIGNNAVNWYQQLPGKAPKLLIYAAGRCPRILMRCKQDSDCLAGCVCGPNGFCGGGSGVPDRFSGSIDSSSNSASLTISGLRAEDEADYYCQSYDSSNHWVFGGGTKLTVLGQP
modifications: EETI-II in VL CDR2; CDR2_C_08
B2: KB_C10: KnotBody, EETI-II in VL CDR2; VL SEQ ID NO: 123 (antibody, V domains shown)
VL: QSVLTQPPSVSEAPRQRVTITCSGSSSNIGNNAVNWYQQLPGKAPKLLIYAAGPCPRILMRCKQDSDCLAGCVCGPNGFCGADSGVSDRFSGSKSGTSASLAITGLQAEDEGDYYCAAWDDSLNGLVFGGGTKVTVLGQP
modifications: EETI-II in VL CDR2; CDR2_E_05
B3: KB_B11: KnotBody, EETI-II in VL CDR1; VL SEQ ID NO: 86 (antibody, V domains shown)
VL: QSVLTQPPSVSEAPRQRVTITCGSRPCPRILMRCKQDSDCLAGCVCGPNGFCGSHNWYQQLPGSSPTTVIYEDNQRPSGVPDRFSGSIDRSSNSASLTISGLKTEDEADYYCQSYDSSNHRVVFGGGTKLTVLGQP
modifications: heavy chain missing; CDR1_F_02
B4: F01: KnotBody with EET 5-3 framed EETI-II in kappa VL CDR2; SEQ ID NO: 312 (protein)
chain: DIQMTQSPSSLSASVGDRVTITCRASQSISSYLNWYQQKPGKAPKLLIDAAGECGPNGFCGSGSDGGVCPRINMRCKQDSDCLAGCGRDSGVPSRFSGSGSGTDFTLTISSLQPEDFATYYCQQSYSTPWTFGQGTKVEIKRT
modifications: F01 (101798)
B5: F07: KnotBody with EET 5-3 framed EETI-II in VL CDR2; SEQ ID NO: 314 (protein)
chain: QSVLTQPPSVSEAPRQRVTITCSGSSSNIGNNAVNWYQQLPGKAPKLLIYAAGGCGPNGFCGSGSDGGVCPRILMRCKQDSDCLAGCGGQSGVPDRFSGSKSGTSASLAISRLQSEDEADYYCAAWDDSLNAYVFGTGTKVTVLGQP
modifications: F07 (72824)
B6: G11: KnotBody with EET 5-3 framed EETI-II in VL CDR2; SEQ ID NO: 317 (protein)
chain: QSVLTQPPSVSEAPRQRVTITCSGSSSNIGNNAVNWYQQLPGKAPKLLIYAAGGCGPNGFCGSGSDGGVCPRILMRCKQDSDCLAGCGQSSGVSDRFSGSKSGTSATLDITGLQTGDEADYYCGTWDNSLSVGVFGGGTKVTVLGQP
modifications: G11 (27650)

Experiments:
trypsin [1] = target: T1, trypsin (Bos taurus, UniProt P00760); experiment: Monoclonal phage TRF binding assay on trypsin (KnotBody clones and GlyAla mutants); details: for % reduction in binding signal: GlyAla mutant (EETI-II Pro3 to Gly, Arg4 to Ala) of the clone versus the clone, monoclonal phage, trypsin on streptavidin plates; for Tryspin binding signal (FU): monoclonal phage supernatant of round-2 clones, biotinylated trypsin on neutravidin plates
T1 construct: gene PRSS1
T1 sequence (P00760 24-246): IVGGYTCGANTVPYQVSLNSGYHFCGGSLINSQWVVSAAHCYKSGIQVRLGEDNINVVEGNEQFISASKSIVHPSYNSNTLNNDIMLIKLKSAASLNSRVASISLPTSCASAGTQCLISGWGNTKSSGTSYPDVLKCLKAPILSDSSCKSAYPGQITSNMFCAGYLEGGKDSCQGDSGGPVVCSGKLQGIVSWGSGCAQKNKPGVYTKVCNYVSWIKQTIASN
Procedure: Phage display technology facilitates isolation of binders to any given target from large combinatorial repertoires based on proteins and peptides that can be presented on the surface of filamentous phage^105. In order to isolate functional knottin-antibody fusions from the KnotBody libraries multiple rounds of phage display selections on trypsin (cognate antigen for the EETI-II donor) were carried out. Phage particles were prepared by rescuing KnotBody libraries using trypsin cleavable helper phage^102,106Two rounds of phage display selections were performed on 10 μg/ml biotinylated trypsin immobilised on Streptavidin (for Round-1) or Neutravidin (for round-2) coated Maxisorp™ immunotubes (Thermo Scientific, Cat No. 444202). In both rounds of selection, phage libraries were pre-incubated with streptavidin coated paramagnetic beads (Thermo Fisher Scientific, Cat. No. 11205D). These beads were removed prior to the addition the phage to the antigen tubes to limit the streptavidin binders entering the selection. Polyclonal phage preparations from round-2 selection outputs were analysed for trypsin binding using a time resolved fluorescence (TRF) binding assay. In this assay, polyclonal phage binding to biotinylated trypsin immobilised on neutravidin (Thermo Fisher Scientific, Cat. No 31000) coated Maxisorp™ plates (Thermo Scientific, Cat. No. 437111) was detected using a mouse anti-M13 antibody (GE Healthcare, Cat. No. 27-9420-01) followed by europium conjugated anti-mouse antibody (Perkin Elmer, Cat. No. AD0124).
In order to identify monoclonal KnotBodies with desired binding characteristics, 94 individual clones derived from 2 rounds of selection using EETI-II CDR1 or CDR2 libraries were picked into 96 well culture plates and phage were prepared from each clone. Methods for screening by monoclonal phage ELISA are known in the art^107. […] Clones with >3× binding signal above background were picked as positive clones and sequenced to identify unique clones. 14 and 42 unique binders were identified from EETI-II CDR1 and EETI-II CDR2 libraries respectively (Table 1). 18 binders from the EETI-II CDR2 library and 3 binders from the EETI-II-CDR1 library were chosen for further characterisation based on their VL and linker sequence diversity. These binders were assigned new clone identification numbers (Table 2).
The trypsin binding capability of EETI-II is attributed to proline (Pro3) and arginine (Arg4) residues present in its loop1 (GCPRILMRC; SEQ ID NO: 68). […] Monoclonal phage was prepared from the 21 selected clones and their mutant equivalents. […] Replacement of the trypsin-binding residues of EETI-II abolished the ability of all KnotBody clones to bind to trypsin (Table 3). In order to confirm that the loss of trypsin binding was not due to reduced expression or display of pIII fusion phage was prepared from 11 (randomly chosen) KnotBodies and their GlyAla variants were analysed on a western blot using an antibody which recognises the product of gene 3 (pIII) using an anti-pIII antibody (MoBiTec GmbH) (FIG. 6).

trypsin [2] = target: T1, trypsin; experiment: KnotBody Fab TRF binding assay on trypsin; details: Fab format
trypsin [3] = target: T1, trypsin; experiment: Monoclonal phage ELISA on trypsin, EET 5-3 framed KnotBodies; type: binding; details: value in brackets after the clone name
Description: Following selection on trypsin, as described in example 3, positive clones were identified by monoclonal phage ELISA and their sequences determined. Examples of positive clones in CDR1 or CDR 2 of kappa and lambda light chains are shown in Table 29 with the linker sequences shown in lower case and the knottin donor in a 5-3 frame shown in italics. Also shown is the value of ELISA signal attained from monoclonal phage ELISA. The specificity of interaction was further confirmed by mutating the pair of Proline-Arginine residues involved in interaction with trypsin to alanine-alanine which diminished binding (as described in example 3).

| Molecule | % reduction in binding signal (trypsin [1]) [%] | Tryspin binding signal (FU) (trypsin [1]) | TRF signal for 0.6 ug/mL Fab (trypsin [2]) | TRF signal for 2.4 ug/mL Fab (trypsin [2]) | TRF signal for 10 ug/mL Fab (trypsin [2]) | ELISA signal from monoclonal phage ELISA (trypsin [3]) |
| --- | --- | --- | --- | --- | --- | --- |
| B1 | 100 | 89424 | 46788 | 204878 | 288988 |  |
| B2 | 100 | 118631 | 41709 | 146488 | 238066 |  |
| B3 | 100 | 10286 |  |  |  |  |
| B4 |  |  |  |  |  | F01 (101798) |
| B5 |  |  |  |  |  | F07(72824) |
| B6 |  |  |  |  |  | G11 (27650) |
